Broadly, the EC50 is the concentration giving half of the maximal effect. Broadly, the Kd is the free concentration of one partner at which half of the binding sites on the other are occupied at equilibrium, for simple one-to-one binding.

Here are results for nine molecules from US12503511 (COMPASS THERAPEUTICS, dated 2025).

Experiment [1] addresses T1, murine PD-L1 expressed on cells (murine, UniProt Q9EP73 19-290).
T1 construct: whole, on cells; also called muPDL1; mouse PD-L1
The experiment can be described thus: cell binding titration, A20 cells expressing murine PD-L1.

Experiment [2] addresses T2, human PD-L1 expressed on cells (human, UniProt Q9NZQ7 19-290).
T2 construct: also called huPDL1; human PD-L1 on HEK cells
The experiment is described as follows: cell binding titration, HEK cells expressing human PD-L1.

For experiment [3], the target named is T3, purified recombinant His tagged human PD-L1 (human, UniProt Q9NZQ7 19-238).
T3 construct: not shown: His tag
T3 sequence (Q9NZQ7 19-238 limits assumed): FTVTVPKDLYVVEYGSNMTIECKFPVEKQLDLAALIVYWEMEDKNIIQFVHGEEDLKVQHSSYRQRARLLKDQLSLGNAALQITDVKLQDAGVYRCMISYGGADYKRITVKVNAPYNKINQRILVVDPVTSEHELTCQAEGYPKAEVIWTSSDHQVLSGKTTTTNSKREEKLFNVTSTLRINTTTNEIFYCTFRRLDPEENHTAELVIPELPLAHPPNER
The experiment can be described thus: SPR (Carterra MX96), antibody on chip, His-tagged human PD-L1 injected.

For experiment [4], the target named is T2, human PD-L1 expressed on cells. The experiment can be described thus: cell binding EC50 on HEK-human PD-L1; fold improvement, reference taken as parent mAb24.
The target in experiment [5] is T3, purified recombinant His tagged human …. The experiment is described as follows: SPR KD; fold improvement, reference taken as parent mAb24.

T1 sequence (Q9EP73 19-290): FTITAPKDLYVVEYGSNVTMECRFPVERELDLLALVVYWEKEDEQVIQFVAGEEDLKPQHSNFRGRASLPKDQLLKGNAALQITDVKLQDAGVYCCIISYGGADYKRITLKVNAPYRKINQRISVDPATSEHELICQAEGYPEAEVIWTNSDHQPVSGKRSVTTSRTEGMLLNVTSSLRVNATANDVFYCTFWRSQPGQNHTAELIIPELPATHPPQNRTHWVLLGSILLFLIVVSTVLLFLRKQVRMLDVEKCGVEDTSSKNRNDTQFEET
T2 sequence (Q9NZQ7 19-290 limits assumed): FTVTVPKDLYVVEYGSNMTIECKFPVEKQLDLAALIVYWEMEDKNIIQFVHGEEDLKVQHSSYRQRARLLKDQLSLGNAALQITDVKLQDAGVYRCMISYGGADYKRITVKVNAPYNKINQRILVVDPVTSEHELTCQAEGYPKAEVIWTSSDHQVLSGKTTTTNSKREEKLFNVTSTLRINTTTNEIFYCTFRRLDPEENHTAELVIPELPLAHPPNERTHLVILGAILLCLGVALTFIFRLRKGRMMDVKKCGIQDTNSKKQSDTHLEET

B1: mAb7 (antibody, V domains shown)
VH: QVQLVQSGAEVKKPGSSVKVSCKASGGTFSSYAINWVRQAPGQGLEWMGGIIPNFGTATYAQKFQGRVTITADESTSTAYMELSSLRSEDTAVYYCARLKGELKGAGDIWGQGTLVTVSS
VL: not shown
As for B1, the binding result in experiment [1] is recorded as “no binding”.

B2: mAb11 (antibody, V domains shown)
VH: QVQLVQSGAEVKKPGSSVKVSCKASGGTFSSYAINWVRQAPGQGLEWMGGVIPFLGTANYAQKFQGRVTITADESTSTAYMELSSLRSEDTAVYYCARLKGILKDALDIWGQGTLVTVSS
VL: not shown
Turning to B2, in experiment [2], the EC50 came out at 1.37 nM. Moreover, the Kd in experiment [3] came out at 156 nM. The binding result in experiment [1] is reported as “no binding”. Besides, the “Fold Improvement” value in experiment [4] came to 0.1 fold.

B3: mAb16 (antibody, V domains shown)
VH: QVQLVQSGAEVKKPGSSVKVSCKASGGTFSSYAINWVRQAPGQGLEWMGRIIPIFGTADYAQKFQGRVTITADESTSTAYMELSSLRSEDTAVYYCARLKGELKDAFDIWGQGTLVTVSS
VL: not shown
For B3, the binding result in experiment [1] was “no binding”.

B4: mAb13 (antibody, V domains shown)
VH: QVQLVQSGAEVKKPGSSVKVSCKASGGTFSSYAISWVRQAPGQGLEWMGGIIPVFGTATYAQKFQGRVTITADESTSTAYMELSSLRSEDTAVYYCARLKGEFKDAFDIWGQGTLVTVSS
VL: not shown
On to B4, for which the EC50 in experiment [2] is 1.43 nM. In addition, the “Fold Improvement” value was determined as 0.1 fold in experiment [5] and 1 fold in experiment [4]. For the same molecule, the Kd in experiment [3] is 52.3 nM. Besides, the binding result in experiment [1] is reported as “no binding”.

B5: mAb12 (antibody, V domains shown)
VH: QVQLVQSGAEVKKPGSSVKVSCKASGGTFSSYAISWVRQAPGQDLEWMGGIIPIVGIANYAQKFQGRVTITADESTSTAYMELSSLRSEDTAVYYCARLKGELKDAFDIWGQGTLVTVSS
VL: not shown
B5 registered a concentration giving a half-maximal response (EC50) in experiment [2] of 1.23 nM. Further, the Kd in experiment [3] came to 358 nM. Moreover, the binding result in experiment [1] is given as “no binding”. For the same molecule, the “Fold Improvement” value in experiment [4] was 0.1 fold.

B6: mAb15 (antibody, V domains shown)
VH: QVQLVQSGAEVKKPGSSVKVSCKASGGTFSSYAISWVRQAPGQGLEWMGRINPILGTANYAQKFQGRVTITADESTSTAYMELSSLRSEDTAVYYCARLKGELKDAFSIWGQGTLVTVSS
VL: not shown
As for B6, the binding result in experiment [1] is “no binding”.

B7: mAb23 (antibody, V domains shown)
VH: QVQLVQSGAEVKKPGSSVKVSCKASGGTFSSYAINWVRQAPGQGLEWMGGIIPVFGTATYAQKFQGRVTITADESTSTAYMELSSLRSEDTAVYYCARLKGELKDAFDIWGQGTMVTVSS
VL: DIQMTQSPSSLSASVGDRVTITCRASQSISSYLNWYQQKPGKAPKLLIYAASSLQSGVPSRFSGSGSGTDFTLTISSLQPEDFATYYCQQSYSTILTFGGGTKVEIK
In the case of B7, it took 0.83 nM to reach a half-maximal effect in experiment [2] (EC50). Besides, the Kd in experiment [3] worked out at 369 nM. Besides, the binding result in experiment [1] is on record as “no binding”. Moreover, in experiment [4], the “Fold Improvement” value amounted to 0.2 fold.

B8: mAb21 (antibody, V domains shown)
VH: QVQLVQSGAEVKKPGSSVKVSCKASGGPFRSHAVSWVRQAPGQGLEWMGGIIPVFGTATYAQKFQGRVTITADESTSTAYMELSSLRSEDTAVYYCARLKSELKDAFDIWGQGTLVTVSS
VL: not shown
B8: the EC50 in experiment [2] was 0.14 nM. For the same molecule, the results for the “Fold Improvement” value in experiment [5] and in experiment [4] were 0.1 fold and 1 fold, respectively. Further, in experiment [3], the Kd is 91.5 nM. Also, the binding result in experiment [1] is given as “no binding”.

B9: mAb14 (antibody, V domains shown)
VH: QVQLVQSGAEVKKPGSSVKVSCKASGGTFSSYAISWVRQAPGQGLEWMGRIIPLFGTAHYAQKFQGRVTITADESTSTAYMELSSLRSEDTAVYYCARLKGELKDAFDIWGQGTLVTVSS
VL: not shown
For B9, the response in experiment [2] was half-maximal at 1.54 nM (EC50). The binding result in experiment [1] is “no binding”. Moreover, the “Fold Improvement” value in experiment [4] turned out to be 0.1 fold.
